The record followed here is US20170183403A1.

Broadly, the Kd is the constant that tells how readily two partners part at equilibrium. The term koff denotes the rate constant with which the complex falls apart. Low readings indicate slow dissociation, high ones fast dissociation.

The target in assay [1] is murine IL-2 (mouse) (UniProt P04351). Kind of assay: SPR, MAB602 amine-coupled on chip, mIL-2 at 1 nM or more.
For assay [2], the target named is human interleukin-2 (human) (UniProt P60568). Kind of assay: sandwich ELISA, biotinylated MAB602 on hIL-2 captured by coated 5344, no competitor. (In general: ELISA stands for enzyme-linked immunosorbent assay.)
Assay [3] has as its target T1, Reference peptide no. 52.
T1 sequence (peptide): YKNPKLTRMLTAKFA
Kind of assay: peptide microarray (RepliTope), Ala mutagenesis set.

For assay [4], the target named is T2, Reference peptide no. 11.
T2 sequence (peptide): YKNPKLTRMLTFKFY
Described as above.

Assay [5] addresses T3, Reference peptide no. 42.
T3 sequence (peptide): INNYKNPKLTRMLTA
The description is as above.

In assay [6] the target is T4, Reference peptide no. 43.
T4 sequence (peptide): YKNPKLTRMLTAKFY
Described as above.

Assay [7] deals with T5, Reference peptide no. 12.
T5 sequence (peptide): PKLTRMLTFKFYMPK
The description is as above.

Assay [8] addresses T6, Reference peptide no. 44.
T6 sequence (peptide): PKLTRMLTAKFYMPK
Described as above.

The target of assay [9] is T7, Reference peptide no. 45.
T7 sequence (peptide): TRMLTAKFYMPKKAT
The assay is described as above.

Assay [10] concerns the target Reference peptide no. 54. The assay is described as above.
The target of assay [11] is T8, Reference peptide no. 49.
T8 sequence (peptide): TRMLTFKFAMPKKAT
The assay is described as above.

In assay [12] the target is T9, Reference peptide no. 10.
T9 sequence (peptide): INNYKNPKLTRMLTF
The assay is described as above.

Assay [13] concerns the target T10, Reference peptide no. 48.
T10 sequence (peptide): PKLTRMLTFKFAMPK
The description is as above.

Assay [14] concerns the target T11, Reference peptide no. 47.
T11 sequence (peptide): YKNPKLTRMLTFKFA
The description is as above.

The target in assay [15] is Reference peptide no. 53. The assay is described as above.
Assay [16] deals with T12, Reference peptide no. 13.
T12 sequence (peptide): TRMLTFKFYMPKKAT
The description is as above.

The target of assay [17] is human interleukin-2 (human) (UniProt P60568). In words: SPR, antibody amine-coupled on GLM chip, hIL-2 in solution. A general note: In SPR one partner is held on a chip, and binding of the other changes the refractive index at the surface.
For assay [18], the target named is T2, Reference peptide no. 11. In words: peptide microarray (RepliTope).
Assay [19] concerns the target T13, Reference peptide no. 23.
T13 sequence (peptide): EEVLNLAQSKNFHLR
Kind of assay: peptide microarray (RepliTope).

Assay [20] has as its target T5, Reference peptide no. 12. Kind of assay: peptide microarray (RepliTope).
Assay [21] deals with T14, Reference peptide no. 25.
T14 sequence (peptide): AQSKNFHLRPRDLIS
Kind of assay: peptide microarray (RepliTope).

In assay [22] the target is T15, Reference peptide no. 24.
T15 sequence (peptide): LNLAQSKNFHLRPRD
In words: peptide microarray (RepliTope).

In assay [23] the target is T9, Reference peptide no. 10. Kind of assay: peptide microarray (RepliTope).
The target in assay [24] is T16, Reference peptide no. 22.
T16 sequence (peptide): KPLEEVLNLAQSKNF
Kind of assay: peptide microarray (RepliTope).

Assay [25] has as its target T17, Reference peptide no. 26.
T17 sequence (peptide): KNFHLRPRDLISNIN
Kind of assay: peptide microarray (RepliTope).

Assay [26] deals with T12, Reference peptide no. 13. Kind of assay: peptide microarray (RepliTope).
In assay [27] the target is Reference peptide no. 53. In words: peptide microarray (RepliTope), Ala mutagenesis set. This is another data set of the same source.
Assay [28] addresses Reference peptide no. 54. The description is as above. The source holds these as a separate data set.

Read-outs that look alike come from different tables or passages of the source. Where only a bound is given, the exact number is not on record here.

human interleukin-2 (human), sequence (P60568 21-153 limits assumed): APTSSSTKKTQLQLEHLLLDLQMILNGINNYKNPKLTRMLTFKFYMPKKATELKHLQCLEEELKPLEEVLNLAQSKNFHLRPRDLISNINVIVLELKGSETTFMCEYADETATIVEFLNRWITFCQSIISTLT
murine IL-2 (mouse), sequence (P04351 21-169 limits assumed): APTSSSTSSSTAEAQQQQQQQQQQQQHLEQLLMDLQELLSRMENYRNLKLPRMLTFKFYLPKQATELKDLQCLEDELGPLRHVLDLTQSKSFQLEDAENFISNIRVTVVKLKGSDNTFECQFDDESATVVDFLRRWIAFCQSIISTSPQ

B1: MAB602 (antibody, from another filing, IgG2a, V domains shown)
VH: EVQLQESGPGLVAPSQSLSITCTVSGFSLTNYDISWIRQPPGKGLEWLGVIWTGGGTNYNSGFMSRLSITKDNSKSQVFLKMNSLQTDDTAIYYCVRQGRTPYWGQGTLVTVSA
VL: DIQVTQSPSSLSVSLGDRVTITCKASKDIYNRLAWYQQKPGNAPRLLISGATSLETGVPSRFSGSGSGKDYTLTITSLQTEDVATYYCQQFWGTPYTFGGGTKLEIKR
B1: the response units (RU) in [1] is > 10 RU. The same molecule yielded an absorbance (OD450) in [2] of 1.1 OD450. Besides, the signal intensity after subtraction of control signal in [3] worked out at 13100 AU; in [4] it was 49700 AU; in assay [5], 246 AU; in [6], 42800 AU; in [7], 28800 AU; in assay [8] it was 5030 AU. For the same molecule, the signal intensity after subtraction of control signal was found to be 0 AU in assay [9]; 0 AU in assay [10]; 3020 AU in assay [11]; 46000 AU in assay [12]; 13400 AU in assay [13]; 21400 AU in assay [14]. Also, the signal intensity after subtraction of control signal was determined as 0 AU in assay [15]; 5250 AU in [16]; 49700 AU in assay [18]; 13300 AU in assay [19]; 28800 AU in [20]; 5220 AU in assay [21]. Also, the signal intensity after subtraction of control signal is 3290 AU in assay [22]; 46000 AU in assay [23]; 5000 AU in [24]; 7510 AU in assay [25]; 5250 AU in assay [26]. In addition, the Kd in assay [17] amounted to 9.7 nM. The koff in [17] is 0.000494 s⁻¹.

B2: NARA1 (antibody, mouse IgG2a, kappa)
heavy: QVQLQQSGAELVRPGTSVKVSCKASGYAFTNYLIEWVKQRPGQGLEWIGVINPGSGGTNYNEKFKGKATLTADKSSSTAYMQLSSLTSDDSAVYFCARWRGDGYYAYFDVWGAGTTVTVSSAKTTAPSVYPLAPVCGDTTGSSVTLGCLVKGYFPEPVTLTWNSGSLSSGVHTFPAVLQSDLYTLSSSVTVTSSTWPSQSITCNVAHPASSTKVDKKIEPRGPTIKPCPPCKCPAPNLLGGPSVFIFPPKIKDVLMISLSPIVTCVVVDVSEDDPDVQISWFVNNVEVHTAQTQTHREDYNSTLRVVSALPIQHQDWMSGKEFKCKVNNKDLPAPIERTISKPKGSVRAPQVYVLPPPEEEMTKKQVTLTCMVTDFMPEDIYVEWTNNGKTELNYKNTEPVLDSDGSYFMYSKLRVEKKNWVERNSYSCSVVHEGLHNHHTTKSFSRTPGK
light: not shown
Turning to B2, the signal intensity after subtraction of control signal was 24 AU in [27] and 0 AU in [28].
